Data as given in the nanobody polyreactivity screen of Harvey et al. (2022).

assay: yeast display, Sf9 membrane polyspecificity reagent, FACS + sequencing; frameworks hold sequencing errors
Procedure, shortened: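 In a synthetic yeast display library (Saccharomyces cerevisiae BJ5465), nanobody expression was induced with galactose for 36–48 hours. FACS gates were set low and high (top ~1%) using anti-HA fluorescence for expression and streptavidin fluorescence for binding of the Sf9 membrane reagent. Each polyreactivity label is drawn from the gate of origin.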

Sequence | polyreactivity (PSR sort gate)
QVQLVESGGGLVQAGGILRLSCAASGSTFYRNAMGWYRQEPGKEREFVAAISFRGGGTYADSVKGRFTISRDNAKNTVYLQMNSLKPEDSAVYYCAAESKPRWYVRYDYWGQGTQVTVSS | low polyreactivity
QVQLVESGGGLVQAGGSLRLSCAASGSIFLEYTMGWYSQAPGKECVLVAAITSGGSTKYADSVKGRFTISRDTAKNTVYLQMNILKPEDTAVYYCNARHYSREFDYWGQGTQVTVSS | low polyreactivity
QVQLVESGGGLVQAGGSLRLSCAASGYIFAWYAMGWYRQAPGIVRELVAAISRSGGSTYYADSVKGRFTISRDNAKHTDYLQMNSLKPEDTAVYYCNAYSAYDEYDYWGQGTQVTVSS | high polyreactivity
QVQLVESGGGLVQAGGSLRLSCAASGRTFPWYAMGWYRQAPGKERELVATISRSGASTYYADSVKGRFTISRDNAKNTVYLQMNSLKPEDTAVYYCAARLGYATLYSWGQGTQVTVSS | high polyreactivity
QVQLVESGGGLFQAGGSLRLSCAASGSTFYIYAMGWYRHAPGKERELVARITRGGTTYADSVKGRFTISRDNAKNTVYLQMNSLKPEDTAVYYCNAYISDDRYWSPAIEEDYWGQGTQVTVSS | high polyreactivity
QVQLVESGGGLVQAGGSLRLSCAASGGTFTRYAMGWYRQAPGKEREFVAAISGSGGSTYYADSVKGRFTISRDNAKNTVYLQMNSLKPEDTAVYYCNKVPVYPPSYYWGQGTQVTVSS | low polyreactivity
QVQLVESGGGLVQAGGSLRLSCAASGGTLRYYAMGWYRQAPGKEREFVASISRSGGSTYYADSVKGRFTISRDNAKNTVYLQMNSLKPEDTAVYYCAAYWSPGYTTRRGYWGQGTQVTVSS | high polyreactivity
QVQLVESGGGLVQAVGSLRLSCAASGIIFRNYAMGWYRQAPGKEREWVAAISRSGGSTYYADSVKGRFTISRDNAKNTCYLQMNSLKPEDTAVYYCNAAYWAYNGFSYLMDYWGQGTQVTVSS | low polyreactivity
QVQLVESGGGLVQAGGSLRLSCAASGSTFYLYAMGWYRQAPGKERELVAAISWSDDTTYYADSVKGRFTISRDNAKNTVYLQMNSLKPEDTAVYYCATVPHYYYDYDYWGQGTQVTVSS | low polyreactivity
QVQLVESGGGLVQAGGSLRLSCAASGRTFRVYAMGWYRQAPGKERELVAGIRSRGGSTYYADSVKGRFTISRDYAKNTVYLQMNSLKPEDTAVYYCAAGYYLPQAIYEYWGLGTQVTVSS | high polyreactivity
QVQLVDSGGGLVQAGGSLRLSCAASGITITEYAMGWYRQAPGKERELVAVISSVGTMYYADSVKGRFTISRDNAKNTVYFQMNSLKPEDTAVYYCAADYSDDGEYPYWSGSDYWGQGTQVTVSS | low polyreactivity
QVQLVESGGGLVQAGGSLRLSCAASGNTFYSYAMGWYRPAPGKERELVAAITWGGRTKYADSVKGRFTISRDNAKNTVYLQMNSLKPEDTAVYYCAARLYHGKTKYDYWGQGTQVTVSS | high polyreactivity
QVQLVESGGGLVQAGGSLRLTCAASGRTFAIYAMGWYRQAPRKEREFFDAISWSGGDTYYADSVKGRFTISRDNAKNTVYLQMNSLKAEDTAVYYCAARYIDYEGRDLQYELDYWGQGTQVSVSS | low polyreactivity
QVQLVESGGGLVQAGGSLRLSCAASGRTFKYYAMGWYRQAPGKERELVAAISRSGGSTYADSVKGRFTISRDNAKNTVYLQMNSLKPEDTAVYYCATGWWRQGVASFDYDYWGQGTQVTVSS | high polyreactivity
QLQLVESGGGLVQAGGSLRLSCAASGFTFYRYAKGWYRQAPGKARELVAAISWSGGTTYFADSVKGRFTISRDNAKNTVYLQMNSLTPEDTAVEYCNARFIARSGYKVDYDYWGQGTQVTVSS | high polyreactivity
QDQHVESGGGLVQAGGSLRLSCAASGITIRTNAIGWYRQAPGKERELVAAITTNGGNTYYADSVKGRFTISRENAKNTVYLQMNSLKQEDTAVYYCNTATYVDSFPDPGDHWGQGTQVTVSS | low polyreactivity

Sequence | polyreactivity (PSR sort gate)
QVQLVESGGGLVQAGGSLRLSCAASGGIFTYYVLGWYRQAPGKERELVAAITIGDSTYYADSVKGRFTISRDNAKNTVYVQINSLKPEDTAVYYCNADPYNTWGFTNGYWGQGTQVTVSS | low polyreactivity
QVQLVESGGGLVQAGGSLRLSCAASGSIFIGYAMGWYRQAPGKERELVAAITSGSITNYADSVKGRFTISRDNAKNTVYLQMNSLKPEDTAVYYCAADIYTYLGAYYIGYYWGQGTQVTVSS | low polyreactivity
QVQLVESGGGLVQAGGSLRLSCAASGRIFGFYAMGWYRQAPGKERELVAAITNGGSTYYADSVKGRFTISRDNAKNTVDLQMNSLKPEDTAVYYCNKGRQAHLHITMDYWGQGTQVTLSS | low polyreactivity
QVQLVESGGGLVQAGGSLRLSCAASGSTFVRNAMGWYRQAPGKERELVAAITSSGGSTYYADSVKGRFTISRDNAKYSVYLQMNSLKPEDTAVYYCAKRRYYRYDYWGQGTQVTVSS | low polyreactivity
QVQLVESGGGLVQAGGSLRLSCAASGRIFGAYAMGWYRQAPGKERELVAAINRGGSTNYADSVKGRFTISRDNAKNTVYLQMNSLKPEDTAVYYCAKRSSGRHFTYDYWGQGTQVTVSS | low polyreactivity
QVHLVESGGGLVQAGGSLRLSCAASGSTFVTYTMGWYRQAPGKERELVATITASGGSTYYADSVKGRFTISRDNEKNTVYLQMNSLKPEYTAVYYCAKRRSPVERYDFWGQGTQVTVSS | low polyreactivity
QVQLVESGGGLVQAGGSLRLCCAASGSTFTLYAMGWYSQAPGKVRELVAAISWSTTSTYYAHSVKGRFTISRDNAKNTVSLQMNSLKPEDTAVYYCAAELYRAEYDYWGQGTQVTVSS | high polyreactivity
QVQLGESGGGLVQAGVSLRLSCAASGRTFGSYAMGWYRQAPGKESEMVAVISWSGGITYYADSVKGRFTISRDNAKNTVYLQMNSLKPEDTAVYYCAASPRRDENAGRVRLYYWGQGTQVTVSS | high polyreactivity
QVQLVESGGGLVQAGGSLRLSCAASGRTFLTNAMGWYRQAPGKERELVAAIRWSGTSTYYADSVKGRFTISRDNAKNTVYLQMNSLKPEDTAVYYCAARKVYGSKYGYWGQGTQVTVSS | high polyreactivity
QVQLVESGGGLVQAGGSLRLSCAASGSTFAYNAKGWYRQAPGKERELTNYADSVKGRFTISRDNAKNTVYLQMNSLKPEDNAVYYCIAQIDFGVPDKRAWGYDYWGQGTQVTVSS | low polyreactivity
QVQLVESGGGLVQAGGSLRLSCAASGFTSVDNAMGWYRQAPGNERELVAAIDTSGARTYYADSVKGRFTISRDNAKHTVYLQMNSLKPEDTAVYYCATEYVYDDRLYSTYYYWGQGTQVTVSS | high polyreactivity
QVQLVESGGGLVQAGGSLRLSCAASGSIFRINAMGWYRQAPGKERELVAAITRSGGSTFYADSVKGRFTISRDNAKNTVYLQMNSLKPEDTAVYYCAAVWYYSTVPARYEYWGQGTQVTVSS | low polyreactivity
QVQLVESGGGLVQAGGSLRLSCAASGSIFGTNAMGWYRQAPGKERELVAAIDGGSTTYYADSVKGRFTISRDNAKNTVYLQMNSLKPEDTAVYYCAADGSRYLNYEGYAGYEYWGQGTQVTVSS | low polyreactivity
QVQLVESGGGLVQAGGSLRLSCAASGSTFTLYAMGWYRQAPGKERELVAAISWSSGSTYYADSVKGRFTISRDNAKNTVYLQMNSLKPEDTAVYYCNARRFGLTQYYYWGQGTQVTVSS | low polyreactivity
QVQLVESGGGFVQAVGSLRLSCAASGSTFPRYVLGWYRQAPGTARELVAAITWRGSTNDADSVKGRFTISRDNAKNTVYLQMNSLKPEDSAVYYCAAAFFARDRKRYNYWGQGTQVTVSS | high polyreactivity
QVQLVESGGGLVQAGGSLRLSCAASARTYGNYAMGWYREAPGKERELVADITRRGGSTSYADSVKGRFTISRDNAKNTVYLQMNSLKPEDTAVYYCNKRTTPYYAQGISRLEYDYWGQGTQVTVSS | low polyreactivity
